According to US20220296726A1 (Bicycle, published 2022):
*1 amine or outer side, *2 acyl side, *3 side chain or, on linkers, in order; H or OH if unused. Bridges are numbered along the chain shown (N, C = ends). Where no end group is shown, it is not given here. [ ]: non-standard residue; d: D form. The star is where a group is joined. TATA = O=C(CC[*:1])N1CN(C(=O)CC[*:2])CN(C(=O)CC[*:3])C1; Pent4ynoyl = C#CCCC(=O)*; Aib = CC(C)(N)C(=O)O

T1: Human TREM2 extracellular domain (ECD), residues 19-131, C-terminally biotinylated, deglycosylated (human, UniProt Q9NZC2 19-131, C-terminally biotinylated; deglycosylated)
T1 construct: range 19-131; loaded on Superstreptavidin biosensors; also called triggering receptor expressed on myeloid cells 2; Human BLI (deglycosylated)
T1 sequence (looked up): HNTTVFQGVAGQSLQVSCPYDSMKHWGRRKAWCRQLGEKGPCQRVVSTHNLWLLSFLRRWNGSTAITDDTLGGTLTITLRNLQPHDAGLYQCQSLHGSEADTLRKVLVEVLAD


Target: T1, Human TREM2 extracellular domain (ECD), …
Test: BLI steady state, deglycosylated human TREM2 ECD on sensor
Experimental: Bio-layer interferometry was performed on an Octet RED384® system (Sartorius) at 25° C. in a buffer containing 50 mM HEPES (pH 7.5), 150 mM NaCl and 0.1% Tween. […] Reference wells containing no bicycle peptides and reference sensors loaded with an unrelated protein (His-tagged MLLT3a) were subjected to the same assay protocol and double reference subtraction was used for processing to account for non-specific binding. Traces were analysed using Octet Software (Version 11.0). Association and dissociation curves were globally fit and the response at equilibrium (Req) plotted against concentration to obtain steady-state KD values.

Binder | Kd [nM]
Ac-CSEYCFWPFYHC-NH2 (linker 1-5-12 via TATA) [BCY18217] | 900
Ac-CDEYCFWPFYHC (linker 1-5-12 via TATA) [BCY20563] | 3170
Ac-CSEYCFWPFYSC (linker 1-5-12 via TATA) [BCY20084] | 1650
Ac-CSEYCFWPFYDC (linker 1-5-12 via TATA) [BCY20573] | 1960
Ac-CSEYCFWPFYFC (linker 1-5-12 via TATA) [BCY20576] | 1350
Ac-CSEYCFWPYYHC (linker 1-5-12 via TATA) [BCY20568] | 2280
Ac-CSEYCFWPLYHC (linker 1-5-12 via TATA) [BCY20070] | 1660
Ac-CSEYCFWPFY[dA]C (linker 1-5-12 via TATA) [BCY20094] | 2530
Ac-CSEYCYWPFYHC (linker 1-5-12 via TATA) [BCY20566] | 2140
Ac-C[dA]EYCFWPFYHC (linker 1-5-12 via TATA) [BCY20086] | 18000
Ac-CSEYCFWPFYNC-NH2 (linker 1-5-12 via TATA; SMILES CC(=O)N[C@H]1CSCCC(=O)N2CN3CN(C2)C(=O)CCSC[C@H](NC(=O)[C@H](Cc2ccc(O)cc2)NC(=O)[C@H](CCC(=O)O)NC(=O)[C@H](CO)NC1=O)C(=O)N[C@@H](Cc1ccccc1)C(=O)N[C@@H](Cc1c[nH]c2ccccc12)C(=O)N1CCC[C@H]1C(=O)N[C@@H](Cc1ccccc1)C(=O)N[C@@H](Cc1ccc(O)cc1)C(=O)N[C@@H](CC(N)=O)C(=O)N[C@H](C(N)=O)CSCCC3=O) [BCY20083] | 1840
Ac-CS[dA]YCFWPFYHC (linker 1-5-12 via TATA) [BCY20087] | 18000
Ac-CSEYCFWPFYQC (linker 1-5-12 via TATA) [BCY20572] | 1060
Ac-CSEYCFWPFEHC (linker 1-5-12 via TATA) [BCY20571] | 2210
Ac-CSEYCFWPF[dA]HC (linker 1-5-12 via TATA) [BCY20093] | 4680
Ac-CSEYCFWPFYEC (linker 1-5-12 via TATA) [BCY20574] | 1740
Ac-CSEYCFWPFYPC (linker 1-5-12 via TATA) [BCY20082] | 1930
Ac-CSEYCFWPFDHC (linker 1-5-12 via TATA) [BCY20570] | 1870
ACSEYCFWPFYSCA (linker 2-6-13 via TATA) [BCY17669] | 1200
ACAEYCFWPFYHCA-NH2 (linker 2-6-13 via TATA; N-terminus assumed; SMILES C[C@H](N)C(=O)N[C@H]1CSCCC(=O)N2CN3CN(C2)C(=O)CCSC[C@H](NC(=O)[C@H](Cc2ccc(O)cc2)NC(=O)[C@H](CCC(=O)O)NC(=O)[C@H](C)NC1=O)C(=O)N[C@@H](Cc1ccccc1)C(=O)N[C@@H](Cc1c[nH]c2ccccc12)C(=O)N1CCC[C@H]1C(=O)N[C@@H](Cc1ccccc1)C(=O)N[C@@H](Cc1ccc(O)cc1)C(=O)N[C@@H](Cc1c[nH]cn1)C(=O)N[C@H](C(=O)N[C@@H](C)C(N)=O)CSCCC3=O) [BCY18220] | 2000

Binder | Kd [nM]
ACSEYCFWAFYHCA (linker 2-6-13 via TATA) [BCY18225] | 14000
ACSEYCFWPFWNCA (Ci, Cii, Ciii on TATA scaffold) [BCY17671] | 900
ACSEYCFWPFFNCA (Ci, Cii, Ciii on TATA scaffold) [BCY17672] | 2000
ACSEYCFWPFAHCA (linker 2-6-13 via TATA) [BCY18227] | 3100
ACSEYCFWPFYACA (linker 2-6-13 via TATA) [BCY18228] | 2600
ACSEYCFWPFYLCA (linker 2-6-13 via TATA) [BCY19777] | ~1200
ACSAYCFWPFYHCA (linker 2-6-13 via TATA) [BCY18221] | 1800
ACSEYCFWPFYPCA (linker 2-6-13 via TATA) [BCY17670] | 1700
Ac-CSEYCFWPFQYC (linker 1-5-12 via TATA) [BCY20220] | 1300
Ac-CSYYCFWPFQYC (linker 1-5-12 via TATA) [BCY20221] | 690
Ac-CSEYCFWPFFLC (linker 1-5-12 via TATA) [BCY20222] | 1570
CSEYCXWPFYHC (N-terminal acetyl (Ac); CiSEYCii[4Pal]WPFYHCiii; Ci, Cii, Ciii on TATA scaffold) [BCY20567] | 1020
CSXYCFWPFYHC (N-terminal acetyl (Ac); CiS[K(PYA)]YCiiFWPFYHCiii; Ci, Cii, Ciii on TATA scaffold) [BCY20096] | 2500
CSEYCFWPFYXC (N-terminal acetyl (Ac); CiSEYCiiFWPFY[HArg]Ciii; Ci, Cii, Ciii on TATA scaffold) [BCY20575] | 375
Ac-CSEYCFWPFYHCK(Pent4ynoyl) (linker 1-5-12 via TATA) [BCY20085] | 1620
CSEYCFWPFXHC (N-terminal acetyl (Ac); CiSEYCiiFWPF[K(PYA)]HCiii; Ci, Cii, Ciii on TATA scaffold) [BCY20102] | 1460
Ac-CSEYCFWPK(Pent4ynoyl)YHC (linker 1-5-12 via TATA) [BCY20101] | 18600
CSEYCFWPXYHC (N-terminal acetyl (Ac); CiSEYCiiFWP[4Pal]YHCiii; Ci, Cii, Ciii on TATA scaffold) [BCY20569] | 3800
Ac-CSEYCFW[Aib]FYHC (linker 1-5-12 via TATA) [BCY19670] | 30000
